In patent US20200188541A1 one finds immunoreactive fraction and Kd data, which are given here for four substances.

The target of test [1] is HER2 extracellular domain (coated on magnetic beads) (UniProt P04626). In words: Lindmo method, magnetic beads coated with HER2 extracellular domain (BSA beads as negative control), paired-label.
Test [2] addresses Human epidermal growth factor receptor 2 (HER2) on BT474M1 human breast carcinoma cells (human) (UniProt P04626). In words: saturation binding of radiolabeled VHH on BT474M1 cells at 4 C, non-specific binding with 100-fold excess trastuzumab.

In the case of [^131I]SGMIB-5F7 VHH, in test [1], the immunoreactive fraction was found to be 84.5%. A word on the Kd: it is a measure of binding affinity in units of concentration. The substance [^211At]SAGMB-5F7 VHH had a Kd in test [2] of 4.5 nM. In test [1], this substance returned an immunoreactive fraction of 83.5%. Take iso-[^131I]SGMIB-5F7 VHH: the immunoreactive fraction in test [1] turned out to be 81.8%.

Substance iso-[^211At]SAGMB-5F7 VHH registered an immunoreactive fraction in test [1] of 81.3%.
